Experimental findings from patent publication US20250197502A1 (EXELIXIS, published 2025) are described below.

In experiment [1] the target is T1, Human CD47, soluble His-tagged extracellular domain (AcroBiosystems Cat# CD7-H82E9) (human, UniProt Q08722 19-139).
T1 construct: Bought reagent; also called biotinylated human CD47 His-Avitag; not shown: His tag / His-Avitag of the bought reagent
Put plainly: phage display selection and phage ELISA on biotinylated human CD47 extracellular domain.

For experiment [2], the target named is T2, Human PD-L1, soluble His-tagged (AcroBiosystems Cat# PD1-H82E5) (human, UniProt Q9NZQ7 19-238).
T2 construct: The Carterra reagent PD1-H82E5 is only called a soluble, His-tagged antigen; The Biacore reagent is not specified; also called PD-L1/B7-H1; not shown: His tag of the bought reagent
T2 sequence (Q9NZQ7 19-238): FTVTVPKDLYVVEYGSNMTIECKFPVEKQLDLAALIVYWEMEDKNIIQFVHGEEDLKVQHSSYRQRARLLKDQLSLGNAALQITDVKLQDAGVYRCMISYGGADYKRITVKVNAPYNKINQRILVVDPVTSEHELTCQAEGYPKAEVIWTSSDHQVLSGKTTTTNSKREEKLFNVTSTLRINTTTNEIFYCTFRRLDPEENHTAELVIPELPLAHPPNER
Put plainly: phage display selection and phage ELISA on biotinylated human PD-L1 extracellular domain, then affinity maturation.

Experiment [3] has as its target T3, Human CD47 on the cell surface (tumor cell lines; human red blood cells) (human, UniProt Q08722 19-323). Briefly: cell-based or functional assay.
Experiment [4] has as its target T4, Human PD-L1 on the cell surface (tumor cell lines) (human, UniProt Q9NZQ7 19-290). Put plainly: cell-based or functional assay.
Experiment [5] deals with T3, Human CD47 on the cell surface (tumor …). Briefly: cell-based or functional assay. This is another data set of the same source.
The target in experiment [6] is T4, Human PD-L1 on the cell surface (tumor …). Briefly: cell-based or functional assay. This is another data set of the same source.
For experiment [7], the target named is T5, CD47 and PD-L1 co-expressed on the surface of tumor cells (PDL1-MDA-MB-231, NCI-H292, HT-1080) (human, UniProt Q08722 19-323; Q9NZQ7 19-290). Briefly: cell-based or functional assay.
T5 sequence (Q08722 19-323 limits assumed, chain 1 of 2): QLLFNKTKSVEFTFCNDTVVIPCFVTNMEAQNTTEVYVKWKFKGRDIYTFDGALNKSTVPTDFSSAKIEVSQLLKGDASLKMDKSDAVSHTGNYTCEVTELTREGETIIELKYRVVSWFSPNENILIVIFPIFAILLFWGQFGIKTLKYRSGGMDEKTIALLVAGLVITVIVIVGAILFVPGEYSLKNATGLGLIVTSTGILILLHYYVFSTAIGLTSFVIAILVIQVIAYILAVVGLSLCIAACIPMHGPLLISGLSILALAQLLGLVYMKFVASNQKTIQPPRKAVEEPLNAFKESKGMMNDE
T5 sequence (Q9NZQ7 19-290 limits assumed, chain 2 of 2): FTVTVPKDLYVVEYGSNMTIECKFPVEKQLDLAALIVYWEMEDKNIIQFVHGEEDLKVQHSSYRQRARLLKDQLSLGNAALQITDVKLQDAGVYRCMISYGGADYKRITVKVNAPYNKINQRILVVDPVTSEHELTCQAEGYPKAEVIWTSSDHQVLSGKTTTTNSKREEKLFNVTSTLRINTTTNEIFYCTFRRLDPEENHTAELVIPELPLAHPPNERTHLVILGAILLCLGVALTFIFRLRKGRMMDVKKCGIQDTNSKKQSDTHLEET
Experiment [8] deals with T1, Human CD47, soluble His-tagged …. Put plainly: Biacore (SPR); format not described.
The target of experiment [9] is T6, Cynomolgus CD47, soluble His-tagged (AcroBiosystems Cat# CD7-C52H1) (cynomolgus, UniProt A0A2K5X523 19-139).
T6 construct: Soluble antigen; also called Cyno CD47; cyno-CD47
Put plainly: Biacore (SPR); format not described.

Experiment [10] addresses T2, Human PD-L1, soluble His-tagged …. Briefly: Biacore (SPR); format not described.
In experiment [11] the target is T7, Cynomolgus PD-L1, soluble His-tagged (AcroBiosystems Cat# PD1-C52H4) (cynomolgus, UniProt G7PSE7 19-239).
T7 construct: Soluble antigen; also called Cyno PD-L1; cyno-PD-L1
T7 sequence (G7PSE7 entry or part of it): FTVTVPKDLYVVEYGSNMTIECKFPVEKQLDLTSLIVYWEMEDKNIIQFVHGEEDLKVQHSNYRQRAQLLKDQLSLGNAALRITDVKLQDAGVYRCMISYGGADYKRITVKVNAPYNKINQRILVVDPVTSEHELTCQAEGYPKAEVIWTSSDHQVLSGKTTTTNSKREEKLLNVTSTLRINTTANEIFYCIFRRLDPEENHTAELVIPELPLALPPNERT
Put plainly: Biacore (SPR); format not described.

The target in experiment [12] is T5, CD47 and PD-L1 co-expressed on the …. Briefly: flow cytometry (MFI) on HT-1080 cells endogenously expressing CD47 and PD-L1.
The target is the same in experiment [13]. Briefly: flow cytometry (MFI) on NCI-H292 cells endogenously expressing CD47 and PD-L1.
For experiment [14], the target named is T1, Human CD47, soluble His-tagged …. Put plainly: Carterra biosensor kinetics; bsAb1 coupled to HC30M chip, soluble His-tagged antigen 1.2-900 nM, global fit. As to the method:
(§1) To obtain accurate kinetic constants, the bispecific antibody was prepared at concentrations ranging from 1 to 10 μg/mL in 10 mM NaOAc (pH 4.25 or pH 4.5), and the coupling reaction was performed in running buffer (25 mM MES, pH 5.5) using multiple chip locations for each concentration. In the next association step, the binding interaction of antigen to the coupled antibody was measured. In general, each binding event consisted of a one minute baseline interval followed by a 5 minute antigen injection and a 15 minute dissociation with HBSTE buffer (10 mM HEPES, 150 mM NaCl, 3 mM EDTA, 0.01% Tween-20, pH 7.4) as running buffer. […] Antigens for binding studies were then prepared by reconstituting according to manufacturer recommendation. To obtain accurate kinetic constants, the reconstituted antigens were subsequently diluted into HBSTE buffer to final concentrations ranging from 1.2 nM to 900 nM. Injections of the antigens at each concentration were performed in series. In the next dissociation step, a regeneration process consisting of three times of injection for 25 seconds with 0.1 M glycine (pH 2.8), 1 M NaCl was performed between each antigen binding event, by which the bound antigen on the surface of the chip was allowed to dissociate. Carterra Kinetics analysis package was used to calculate rate constants (kₐ, kd) and corresponding equilibrium dissociation constants (Kd). Binding data were first recovered by double-referencing to subtract the closest reference cell and blank injection.

The target in experiment [15] is T6, Cynomolgus CD47, soluble His-tagged …. Described as above. The protocol:
as §1

For experiment [16], the target named is T2, Human PD-L1, soluble His-tagged …. The description is as above. As to the method: as §1
Experiment [17] addresses T7, Cynomolgus PD-L1, soluble His-tagged …. Described as above. The protocol:
as §1

For experiment [18], the target named is T5, CD47 and PD-L1 co-expressed on the …. Put plainly: flow cytometry, MFI on NCI-H292 tumor cells mixed with human RBC (tumor cells labelled with CellTrace Violet).
For experiment [19] the target is unchanged. Put plainly: flow cytometry (MFI) on PDL1-MDA-MB-231 cells co-expressing CD47 and PD-L1; PDL1-MDA-MB-231 cells carrying both CD47 (~500,000) and PD-L1 (~1,500,000).

T1 sequence (Q08722 19-139): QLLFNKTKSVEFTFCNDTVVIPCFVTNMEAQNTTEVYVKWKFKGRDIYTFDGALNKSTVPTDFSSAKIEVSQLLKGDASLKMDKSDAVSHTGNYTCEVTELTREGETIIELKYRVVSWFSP
T4 sequence (Q9NZQ7 19-290 limits assumed): as the sequence (Q9NZQ7 19-290 limits assumed, chain 2 of 2) above
T3 sequence (Q08722 19-323 limits assumed): as the sequence (Q08722 19-323 limits assumed, chain 1 of 2) above

B1: Antibody mAb-C (selected CD47 binding antibody) (antibody, IgG1, V domains shown)
VH: EVQLVESGGGLVQPGGSLRLSCAASGFTFSWYYIHWVRQAPGKGLEWVAYIDSSSGYTEYADSVKGRFTISADTSKNTAYLQMNSLRAEDTAVYYCARGGYLGMDYWGQGTLVTVSS
VL: DIQMTQSPSSLSASVGDRVTITCRASQSVSSAVAWYQQKPGKAPKLLIYSASSLYSGVPSRFSGSRSGTDFTLTISSLQPEDFATYYCQQSRSRPRTFGQGTKVEIK
notes: Selected as a Fab on phage
Regarding B1, the binding result in experiment [1] is listed as “binds”.

B2: Antibody mAb-P (selected and then affinity matured PD-L1 binding antibody) (antibody, human IgG1, V domains shown)
VH: EVQLVESGGGLVQPGGSLRLSCAASGFTFRSYYIHWVRQAPGKGLEWVATISSYGVFTYYADSVKGRFTISADTSKNTAYLQMNSLRAEDTAVYYCARGTTLTPVLDYWGQGTLVTVSS
VL: DIQMTQSPSSLSASVGDRVTITCRASQSVSSAVAWYQQKPGKAPKLLIYSASSLSSGVPSRFSGSRSGTDFTLTISSLQPEDFATYYCQQFGAEPITFGQGTKVEIK
In the case of B2, the binding result in experiment [2] was “binds”.

B3: bsAb1 (mAb-C x mAb-P in an exemplary format; bispecific anti-CD47 x anti-PD-L1 antibody of four polypeptide chains) (bispecific antibody)
chain 1: not shown
chain 2: EVQLVESGGGLVQPGGSLRLSCAASGFTFSWYYIHWVRQAPGKGLEWVAYIDSSSGYTEYADSVKGRFTISADTSKNTAYLQMNSLRAEDTAVYYCARGGYLGMDYWGQGTLVTVSSAQPREPQVYTLPPCRDWLTKNQVSLTCLVKGFYPSDIAVEWESNGQPENNYKTTPPVLDSDGSFFLYSKLTVDKSRWQQGNVFSCSVMHEALHNHYTQKSLSLSPGK
chain 3: not shown
chain 4: EVQLVESGGGLVQPGGSLRLSCAASGFTFRSYYIHWVRQAPGKGLEWVATISSYGVFTYYADSVKGRFTISADTSKNTAYLQMNSLRAEDTAVYYCARGTTLTPVLDYWGQGTLVTVSSASTKGPSVFPLAPSSKSTSGGTAALGCLVKDYFPEPVTVSWNSGALTSGVHTFPAVLQSSGLYSLSSVVTVPSSSLGTQTYICNVNHKPSNTKVDKKVEPKSC
notes: Chains 1+2 form the CD47 arm (mAb-C), chains 3+4 the PD-L1 arm (mAb-P); also called the selected bispecific antibody
As for B3, the “EC50 of inhibiting CD47/SIRPα signaling in PDL1-MDA-MB-231 cells (PathHunter chemiluminescent signal)” value in experiment [3] amounted to 0.076 nM. In addition, the “EC50 of inhibiting PD-1/PD-L1 interaction in PDL1-MDA-MB-231 cells (PathHunter chemiluminescent signal)” value in [4] came to 0.22 nM. Further, the “IC50, CD47/SIRPa block (PathHunter CD47/SIRPα signaling bioassay)” value in experiment [5] came to 0.8 nM. The “IC50, PD-L1/PD-1 block (PathHunter PD-1/PD-L1 signaling bioassay)” value in experiment [6] is 0.5 nM. In addition, the “ADCP (phagocytosis of NCI-H292 cells) EC50” value in experiment [7] was 0.2 nM. For the same molecule, the Kd in experiment [8] was found to be 21 nM; in [9], 25 nM; in [10], 0.05 nM; in [11] it was 0.034 nM; in [14], 27 nM; in [15], 24 nM. Also, the Kd in experiment [16] was determined as 0.15 nM; in [17] it was 0.18 nM. For the same molecule, the koff stood at 0.0141 s⁻¹ in experiment [8]; 0.0137 s⁻¹ in experiment [9]; 0.000164 s⁻¹ in experiment [10]; 0.00012 s⁻¹ in [11]; 0.0093 s⁻¹ in experiment [14]; 0.0046 s⁻¹ in experiment [15]. Also, the koff in [16] turned out to be 0.00013 s⁻¹; in experiment [17], 0.00015 s⁻¹. For the same molecule, the EC50 in experiment [12] is 0.2 nM; in experiment [13], 0.7 nM; in experiment [19], 0.22 nM. Also, the kon in experiment [14] was found to be 350000 M⁻¹ s⁻¹; in experiment [15], 190000 M⁻¹ s⁻¹; in experiment [16], 980000 M⁻¹ s⁻¹; in [17], 890000 M⁻¹ s⁻¹. Also, the “EC50 (read off the curve)” value in [18] is around 0.7 nM.
